Measured values taken from publication PMC9482650, “Quantitative fragmentomics allow affinity mapping of interactomes” (Nature Communications, 2022).

T1: PDZD7_3, Q9H5P4
T1 sequence (Q9H5P4 857-944, limits assumed, looked up): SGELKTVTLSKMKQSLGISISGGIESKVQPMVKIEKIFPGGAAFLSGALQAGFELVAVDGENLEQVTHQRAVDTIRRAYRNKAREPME

T2: DFNB31_1, Q9P202
T2 sequence (Q9P202 135-233, limits assumed, looked up): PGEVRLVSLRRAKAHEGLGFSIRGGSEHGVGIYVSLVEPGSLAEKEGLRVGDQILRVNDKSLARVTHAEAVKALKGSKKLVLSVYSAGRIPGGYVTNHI

T3: APBA2_1, Q99767
T3 sequence (Q99767 563-664, limits assumed, looked up): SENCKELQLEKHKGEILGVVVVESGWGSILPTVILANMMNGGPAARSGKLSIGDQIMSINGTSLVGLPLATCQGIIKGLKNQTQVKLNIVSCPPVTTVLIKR

T4: NHERF3_1, Q5T2W1
T4 sequence (Q5T2W1 4-100, limits assumed, looked up): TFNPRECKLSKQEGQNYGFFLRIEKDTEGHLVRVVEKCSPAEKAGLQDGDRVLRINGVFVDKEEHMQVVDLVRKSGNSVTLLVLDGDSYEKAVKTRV

T5: LNX2_3, Q8N448
T5 sequence (Q8N448 463-564, limits assumed, looked up): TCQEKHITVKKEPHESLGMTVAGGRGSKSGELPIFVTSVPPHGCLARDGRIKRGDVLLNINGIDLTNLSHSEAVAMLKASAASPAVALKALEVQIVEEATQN

T6: HTRA4, P83105
T6 sequence (P83105 378-476, limits assumed, looked up): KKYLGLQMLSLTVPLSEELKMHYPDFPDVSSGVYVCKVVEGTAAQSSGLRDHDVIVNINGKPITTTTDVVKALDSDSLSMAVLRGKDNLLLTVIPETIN

T7: TIAM2, Q8IVF5
T7 sequence (Q8IVF5 885-986, limits assumed, looked up): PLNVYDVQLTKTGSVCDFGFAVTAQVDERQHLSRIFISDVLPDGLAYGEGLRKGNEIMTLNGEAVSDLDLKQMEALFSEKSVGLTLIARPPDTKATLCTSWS

T8: SIPA1L2, Q9P2F8
T8 sequence (Q9P2F8 945-1036, limits assumed, looked up): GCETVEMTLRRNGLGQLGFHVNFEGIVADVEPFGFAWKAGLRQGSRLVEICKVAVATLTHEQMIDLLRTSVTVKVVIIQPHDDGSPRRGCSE

T9: GRIP1_5, Q9Y3R0
T9 sequence (Q9Y3R0 568-668, limits assumed, looked up): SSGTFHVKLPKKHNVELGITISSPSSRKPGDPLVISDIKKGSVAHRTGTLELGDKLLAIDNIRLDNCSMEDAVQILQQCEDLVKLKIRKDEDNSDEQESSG

T10: DFNB31_2, Q9P202
T10 sequence (Q9P202 274-371, limits assumed, looked up): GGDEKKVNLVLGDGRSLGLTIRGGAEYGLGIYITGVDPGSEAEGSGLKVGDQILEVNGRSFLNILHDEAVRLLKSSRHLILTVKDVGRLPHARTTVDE

T11: TJP3_3, O95049
T11 sequence (O95049 375-456, limits assumed, looked up): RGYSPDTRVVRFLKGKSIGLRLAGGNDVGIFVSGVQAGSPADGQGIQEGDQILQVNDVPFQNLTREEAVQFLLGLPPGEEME

T12: LRRC7, Q96NW7
T12 sequence (Q96NW7 1440-1537, limits assumed, looked up): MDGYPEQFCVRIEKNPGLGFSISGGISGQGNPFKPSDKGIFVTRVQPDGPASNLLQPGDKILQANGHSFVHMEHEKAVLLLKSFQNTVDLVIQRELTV

T13: APBA1_2, Q02410
T13 sequence (Q02410 742-832, limits assumed, looked up): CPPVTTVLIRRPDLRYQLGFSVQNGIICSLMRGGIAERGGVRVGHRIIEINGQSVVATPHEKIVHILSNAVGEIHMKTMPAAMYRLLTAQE

B1: PTH2R, P49190 (peptide)
chain: GCQGETEDVL
B2: TTC24, A2A3L6 (peptide)
chain: PMESGICTIV

Biological target: DLG1_2, Q12959
Test: holdup assay
Parameters: key: below the threshold = too weak to quantify, mostly under pKd 3.1 to 4
Settings: plain residues with an end cap or a label only (N-terminal biotin on a linker: ado-ado)

| Binder | pKd |
| --- | --- |
| B1 | below the threshold |
| B2 | 5.2 |

Biological target: NHERF4_2, Q86UT5
Test: holdup assay
Parameters: key: below the threshold = too weak to quantify, mostly under pKd 3.1 to 4
Settings: plain residues with an end cap or a label only (N-terminal biotin on a linker: ado-ado)

Sequence of NHERF4_2, Q86UT5 (Q86UT5 220-308): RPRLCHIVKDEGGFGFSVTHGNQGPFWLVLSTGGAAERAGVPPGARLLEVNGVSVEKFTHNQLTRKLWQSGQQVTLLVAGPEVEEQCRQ

| Binder | pKd |
| --- | --- |
| B1 | below the threshold |
| B2 | below the threshold |

Biological target: T1, PDZD7_3, Q9H5P4
Test: holdup assay
Parameters: key: below the threshold = too weak to quantify, mostly under pKd 3.1 to 4
Settings: plain residues with an end cap or a label only (N-terminal biotin on a linker: ado-ado)

| Binder | pKd |
| --- | --- |
| B1 | below the threshold |
| B2 | 5.23 |

Biological target: GIPC2, Q8TF65
Test: holdup assay
Parameters: key: below the threshold = too weak to quantify, mostly under pKd 3.1 to 4
Settings: plain residues with an end cap or a label only (N-terminal biotin on a linker: ado-ado)

Sequence of GIPC2, Q8TF65 (Q8TF65 112-203): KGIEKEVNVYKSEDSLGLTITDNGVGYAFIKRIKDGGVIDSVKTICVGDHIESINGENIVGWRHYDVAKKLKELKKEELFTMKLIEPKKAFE

| Binder | pKd |
| --- | --- |
| B1 | below the threshold |
| B2 | below the threshold |

Biological target: T2, DFNB31_1, Q9P202
Test: holdup assay
Parameters: key: below the threshold = too weak to quantify, mostly under pKd 3.1 to 4
Settings: plain residues with an end cap or a label only (N-terminal biotin on a linker: ado-ado)

| Binder | pKd |
| --- | --- |
| B1 | below the threshold |
| B2 | 3.65 |

Biological target: T3, APBA2_1, Q99767
Test: holdup assay
Parameters: key: below the threshold = too weak to quantify, mostly under pKd 3.1 to 4
Settings: plain residues with an end cap or a label only (N-terminal biotin on a linker: ado-ado)

| Binder | pKd |
| --- | --- |
| B1 | below the threshold |
| B2 | below the threshold |

Biological target: T4, NHERF3_1, Q5T2W1
Test: holdup assay
Parameters: key: below the threshold = too weak to quantify, mostly under pKd 3.1 to 4
Settings: plain residues with an end cap or a label only (N-terminal biotin on a linker: ado-ado)

| Binder | pKd |
| --- | --- |
| B1 | 3.98 |
| B2 | 4.02 |

Biological target: T5, LNX2_3, Q8N448
Test: holdup assay
Parameters: key: below the threshold = too weak to quantify, mostly under pKd 3.1 to 4
Settings: plain residues with an end cap or a label only (N-terminal biotin on a linker: ado-ado)

| Binder | pKd |
| --- | --- |
| B1 | below the threshold |
| B2 | below the threshold |

Biological target: T6, HTRA4, P83105
Test: holdup assay
Parameters: key: below the threshold = too weak to quantify, mostly under pKd 3.1 to 4
Settings: plain residues with an end cap or a label only (N-terminal biotin on a linker: ado-ado)

| Binder | pKd |
| --- | --- |
| B1 | below the threshold |
| B2 | 4.77 |

Biological target: T7, TIAM2, Q8IVF5
Test: holdup assay
Parameters: key: below the threshold = too weak to quantify, mostly under pKd 3.1 to 4
Settings: plain residues with an end cap or a label only (N-terminal biotin on a linker: ado-ado)

| Binder | pKd |
| --- | --- |
| B1 | below the threshold |
| B2 | below the threshold |

Biological target: MAGI2_6, Q86UL8
Test: holdup assay
Parameters: key: below the threshold = too weak to quantify, mostly under pKd 3.1 to 4
Settings: plain residues with an end cap or a label only (N-terminal biotin on a linker: ado-ado)

Sequence of MAGI2_6, Q86UL8 (Q86UL8 1141-1229): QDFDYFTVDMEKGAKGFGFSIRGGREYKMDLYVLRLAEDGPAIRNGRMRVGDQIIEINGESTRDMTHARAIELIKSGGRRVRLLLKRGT

| Binder | pKd |
| --- | --- |
| B1 | below the threshold |
| B2 | 3.86 |

Biological target: T8, SIPA1L2, Q9P2F8
Test: holdup assay
Parameters: key: below the threshold = too weak to quantify, mostly under pKd 3.1 to 4
Settings: plain residues with an end cap or a label only (N-terminal biotin on a linker: ado-ado)

| Binder | pKd |
| --- | --- |
| B1 | below the threshold |
| B2 | below the threshold |

Biological target: T9, GRIP1_5, Q9Y3R0
Test: holdup assay
Parameters: key: below the threshold = too weak to quantify, mostly under pKd 3.1 to 4
Settings: plain residues with an end cap or a label only (N-terminal biotin on a linker: ado-ado)

| Binder | pKd |
| --- | --- |
| B1 | below the threshold |
| B2 | below the threshold |

Biological target: T10, DFNB31_2, Q9P202
Test: holdup assay
Parameters: key: below the threshold = too weak to quantify, mostly under pKd 3.1 to 4
Settings: plain residues with an end cap or a label only (N-terminal biotin on a linker: ado-ado)

| Binder | pKd |
| --- | --- |
| B1 | below the threshold |
| B2 | below the threshold |

Biological target: NHERF2_2, Q15599
Test: holdup assay
Parameters: key: below the threshold = too weak to quantify, mostly under pKd 3.1 to 4
Settings: plain residues with an end cap or a label only (N-terminal biotin on a linker: ado-ado)

Sequence of NHERF2_2, Q15599 (Q15599 142-238): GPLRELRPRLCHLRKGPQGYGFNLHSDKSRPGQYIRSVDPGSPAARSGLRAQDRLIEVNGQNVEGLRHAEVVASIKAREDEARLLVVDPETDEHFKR

| Binder | pKd |
| --- | --- |
| B1 | 4.03 |
| B2 | 3.83 |

Biological target: SCRIB_1, Q14160
Test: holdup assay
Parameters: key: below the threshold = too weak to quantify, mostly under pKd 3.1 to 4
Settings: plain residues with an end cap or a label only (N-terminal biotin on a linker: ado-ado)

Sequence of SCRIB_1, Q14160 (Q14160 718-814): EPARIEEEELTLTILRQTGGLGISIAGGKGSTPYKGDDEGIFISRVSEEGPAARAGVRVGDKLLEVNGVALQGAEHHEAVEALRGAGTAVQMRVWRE

| Binder | pKd |
| --- | --- |
| B1 | below the threshold |
| B2 | 3.92 |

Biological target: DLG1_3, Q12959
Test: holdup assay
Parameters: key: below the threshold = too weak to quantify, mostly under pKd 3.1 to 4
Settings: plain residues with an end cap or a label only (N-terminal biotin on a linker: ado-ado)

| Binder | pKd |
| --- | --- |
| B1 | below the threshold |
| B2 | 3.53 |

Biological target: T11, TJP3_3, O95049
Test: holdup assay
Parameters: key: below the threshold = too weak to quantify, mostly under pKd 3.1 to 4
Settings: plain residues with an end cap or a label only (N-terminal biotin on a linker: ado-ado)

| Binder | pKd |
| --- | --- |
| B1 | below the threshold |
| B2 | below the threshold |

Biological target: Inadl_3, Q8NI35
Test: holdup assay
Parameters: key: below the threshold = too weak to quantify, mostly under pKd 3.1 to 4
Settings: plain residues with an end cap or a label only (N-terminal biotin on a linker: ado-ado)

Sequence of Inadl_3, Q8NI35 (Q8NI35 359-469): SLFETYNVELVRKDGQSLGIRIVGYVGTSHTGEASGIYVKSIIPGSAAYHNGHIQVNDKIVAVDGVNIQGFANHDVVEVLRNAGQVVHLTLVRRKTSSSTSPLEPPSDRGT

| Binder | pKd |
| --- | --- |
| B1 | 3.92 |
| B2 | 4.65 |

Biological target: GRIP2_6, Q9C0E4
Test: holdup assay
Parameters: key: below the threshold = too weak to quantify, mostly under pKd 3.1 to 4
Settings: plain residues with an end cap or a label only (N-terminal biotin on a linker: ado-ado)

Sequence of GRIP2_6, Q9C0E4 (Q9C0E4 648-740): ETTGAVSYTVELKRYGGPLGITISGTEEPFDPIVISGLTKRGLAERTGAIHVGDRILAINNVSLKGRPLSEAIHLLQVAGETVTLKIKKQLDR

| Binder | pKd |
| --- | --- |
| B1 | below the threshold |
| B2 | below the threshold |

Biological target: CASK, O14936
Test: holdup assay
Parameters: key: below the threshold = too weak to quantify, mostly under pKd 3.1 to 4
Settings: plain residues with an end cap or a label only (N-terminal biotin on a linker: ado-ado)

Sequence of CASK, O14936 (O14936 487-570): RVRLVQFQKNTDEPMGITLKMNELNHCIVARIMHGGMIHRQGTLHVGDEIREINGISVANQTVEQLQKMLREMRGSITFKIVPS

| Binder | pKd |
| --- | --- |
| B1 | below the threshold |
| B2 | below the threshold |

Biological target: T12, LRRC7, Q96NW7
Test: holdup assay
Parameters: key: below the threshold = too weak to quantify, mostly under pKd 3.1 to 4
Settings: plain residues with an end cap or a label only (N-terminal biotin on a linker: ado-ado)

| Binder | pKd |
| --- | --- |
| B1 | below the threshold |
| B2 | below the threshold |

Biological target: DLG1_1, Q12959
Test: holdup assay
Parameters: key: below the threshold = too weak to quantify, mostly under pKd 3.1 to 4
Settings: plain residues with an end cap or a label only (N-terminal biotin on a linker: ado-ado)

| Binder | pKd |
| --- | --- |
| B1 | below the threshold |
| B2 | 4.79 |

Biological target: T13, APBA1_2, Q02410
Test: holdup assay
Parameters: key: below the threshold = too weak to quantify, mostly under pKd 3.1 to 4
Settings: plain residues with an end cap or a label only (N-terminal biotin on a linker: ado-ado)

| Binder | pKd |
| --- | --- |
| B1 | 3.52 |
| B2 | 4.75 |

Biological target: MAST1, Q9Y2H9
Test: holdup assay
Parameters: key: below the threshold = too weak to quantify, mostly under pKd 3.1 to 4
Settings: plain residues with an end cap or a label only (N-terminal biotin on a linker: ado-ado)

Sequence of MAST1, Q9Y2H9 (Q9Y2H9 962-1065): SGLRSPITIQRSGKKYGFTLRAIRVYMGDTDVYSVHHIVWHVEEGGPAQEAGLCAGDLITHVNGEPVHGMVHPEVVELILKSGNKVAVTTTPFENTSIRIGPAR

| Binder | pKd |
| --- | --- |
| B1 | 3.92 |
| B2 | 4.74 |
